Read-outs that look alike come from different tables or passages of the source. Each block holds one molecule with its values, some of them ahead of it.
How the values were obtained:
Assay in all cases: SPR
[1] = molecular target: CA645 gL4gH5 Fab (human) [IgG part: P01857]
[2] = molecular target: CA645 gL4gH5 Fab (human) [IgG part: P01857]; remark: listed apart in the source
[3] = molecular target: CA645 gL4gH5 Fab (human) [IgG part: P01857]; remark: listed apart in the source
[4] = molecular target: CA645 gL4gH5 Fab (human) [IgG part: P01857]; remark: listed apart in the source
[5] = molecular target: CA645 gL4gH5 Fab (human) [IgG part: P01857]; remark: listed apart in the source
[6] = molecular target: CA645 gL4gH5 Fab (human) [IgG part: P01857]; remark: listed apart in the source
human serum albumin [7] = molecular target: T1, human serum albumin (Homo sapiens, UniProt P02768)
mouse serum albumin = mouse serum albumin (Mus musculus, UniProt P07724)
Sequence of mouse serum albumin (P07724 25-608): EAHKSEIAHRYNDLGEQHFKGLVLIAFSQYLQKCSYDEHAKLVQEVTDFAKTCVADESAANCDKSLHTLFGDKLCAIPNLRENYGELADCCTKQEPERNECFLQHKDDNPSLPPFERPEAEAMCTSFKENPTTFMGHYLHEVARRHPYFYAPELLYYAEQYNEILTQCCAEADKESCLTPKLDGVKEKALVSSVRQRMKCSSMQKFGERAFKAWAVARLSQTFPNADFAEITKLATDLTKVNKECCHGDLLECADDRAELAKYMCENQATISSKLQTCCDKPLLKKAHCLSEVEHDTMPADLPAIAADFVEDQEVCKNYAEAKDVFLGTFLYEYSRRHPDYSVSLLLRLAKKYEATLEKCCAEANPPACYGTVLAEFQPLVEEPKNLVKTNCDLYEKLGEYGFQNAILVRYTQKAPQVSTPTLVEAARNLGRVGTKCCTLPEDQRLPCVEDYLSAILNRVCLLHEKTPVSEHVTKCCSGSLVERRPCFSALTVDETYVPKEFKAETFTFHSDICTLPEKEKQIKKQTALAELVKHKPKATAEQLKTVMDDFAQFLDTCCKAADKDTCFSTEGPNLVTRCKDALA

human serum albumin [8] = molecular target: T1, human serum albumin; remark: listed apart in the source
human serum albumin [9] = molecular target: T1, human serum albumin; remark: listed apart in the source
human serum albumin [10] = molecular target: T1, human serum albumin; remark: listed apart in the source
human serum albumin [11] = molecular target: human serum albumin (Homo sapiens, UniProt P02768); remark: listed apart in the source

B1: CA645 gL5gH5 Fab (Fab, V domains shown)
VH: EVQLLESGGGLVQPGGSLRLSCAVSGIDLSNYAINWVRQAPGKGLEWIGIIWASGTTFYATWAKGRFTISRDNSKNTVYLQMNSLRAEDTAVYYCARTVPGYSTAPYFDLWGQGTLVTVSS
VL: DIQMTQSPSSVSASVGDRVTITCQSSPSVASNFLSWYQQKPGKAPKLLIYEASKLTSGVPSRFSGSGSGTDFTLTISSLQPEDFATYYCGGGYSSISDTTFGGGTKVEIK
- Kd (human serum albumin [7]): 453 nM
- koff (human serum albumin [7]): 0.0571 s⁻¹
- kon (human serum albumin [7]): 126000 M⁻¹ s⁻¹

B4: CA645 gL5gH47 Fab (Fab, V domains shown)
VH: EVQLLESGGGLVQPGGSLRLSCAVSGIDLSNYAINWVRQAPGKGLEWIGIIWASGTTFYATWAKGRFTISRDNSKNTVYLQMNSLRAEDTAVYYCARTVPGYSSAPYFDLWGQGTLVTVSS
VL: DIQMTQSPSSVSASVGDRVTITCQSSPSVASNFLSWYQQKPGKAPKLLIYEASKLTSGVPSRFSGSGSGTDFTLTISSLQPEDFATYYCGGGYSSISDTTFGGGTKVEIK
- Kd (human serum albumin [9]): 52000 nM

B6: CA645 gL19gH5 Fab (Fab, V domains shown)
VH: EVQLLESGGGLVQPGGSLRLSCAVSGIDLSNYAINWVRQAPGKGLEWIGIIWASGTTFYATWAKGRFTISRDNSKNTVYLQMNSLRAEDTAVYYCARTVPGYSTAPYFDLWGQGTLVTVSS
VL: DIQMTQSPSSVSASVGDRVTITCQSSPSVWDNFLSWYQQKPGKAPKLLIYEASKLTSGVPSRFSGSGSGTDFTLTISSLQPEDFATYYCGGGYSSISDTTFGGGTKVEIK
- Kd (human serum albumin [11]): 5 nM

Other lines, results leading:

- Kd [1]: 10.7 nM
- Kd [2]: 12.5 nM
- Kd [3]: 13.3 nM
- Kd [4]: 4.6 nM
- Kd [5]: 1.23 nM
- Kd [6]: 1.8 nM
Molecule: human serum albumin (from UniProt P02768 25-609) (natural protein)

- Kd (human serum albumin [7]): 955 nM
- koff (human serum albumin [7]): 0.0583 s⁻¹
- kon (human serum albumin [7]): 61000 M⁻¹ s⁻¹
B2: CA645 gL4gH37 Fab (Fab, V domains shown)
VH: EVQLLESGGGLVQPGGSLRLSCAVSGIDLSNYAINWVRQAPGKGLEWIGIIWASGTTEYATWAKGRFTISRDNSKNTVYLQMNSLRAEDTAVYYCARTVPGYSTAPYFDLWGQGTLVTVSS
VL: DIQMTQSPSSVSASVGDRVTITCQSSPSVWSNFLSWYQQKPGKAPKLLIYEASKLTSGVPSRFSGSGSGTDFTLTISSLQPEDFATYYCGGGYSSISDTTFGGGTKVEIK

- Kd (mouse serum albumin): 2.6 nM
- Kd (human serum albumin [8]): 0.31 nM
B3: CA645 recombinant rabbit Fab (Fab, V domains shown)
VH: QSLEESGGRLVTPGTPLTLTCTVSGIDLSNYAINWVRQAPGKGLEWIGIIWASGTTFYATWAKGRFTISRPSTTVDLEMTSLTTADTATYFCARTVPGYSTAPYFDLWGPGTLVTVSS
VL: AAVLTQTPSPVSAAVGGTVTINCQSSPSVWSNFLSWYQQKPGQPPKLLIYEASKLTSGVPSRFKGSGSGTQFTLTISDVQCGDAATYYCGGGYSSISDTTFGGGTKVVVK

- binding result (human serum albumin [10]): no binding
B5: CA645 gL5gH37 Fab (Fab, V domains shown)
VH: EVQLLESGGGLVQPGGSLRLSCAVSGIDLSNYAINWVRQAPGKGLEWIGIIWASGTTEYATWAKGRFTISRDNSKNTVYLQMNSLRAEDTAVYYCARTVPGYSTAPYFDLWGQGTLVTVSS
VL: DIQMTQSPSSVSASVGDRVTITCQSSPSVASNFLSWYQQKPGKAPKLLIYEASKLTSGVPSRFSGSGSGTDFTLTISSLQPEDFATYYCGGGYSSISDTTFGGGTKVEIK

From PMC5058626 (mAbs, 2016)
